For this test, the target named is SARS-CoV-2 nsp16 with uncleaved His6-tag (SARS-CoV-2) (UniProt P0DTD1). The experiment in a line: native MS.

“MERS-CoV nsp7-11 polyprotein, tag-free with authentic termini (domain or fragment)” registered a percent of signal as complex below 5%.
